Assays:
[1] = cited from earlier work
[2] = system: human islets β-cells; assay: β-cell apoptosis (TUNEL) and necrosis (propidium iodide) in human islets; format: cell-based; details: 4 days
Description: (§1) Islet isolation and culture. Islets were isolated from pancreases of eleven organ donors at the Department of Surgery, University of Geneva Medical Center, as described (32-34). The islet purity was >95%, as judged by dithizone staining (if this degree of purity was not primarily achieved by routine isolation, islets were handpicked). […] For long-term in vitro studies, the islets were cultured on extracellular matrix-coated plates derived from bovine corneal endothelial cells (Novamed Ltd., Jerusalem, Israel), allowing the cells to attach to the dishes and spread, preserving their functional integrity (7;35). Islets were cultured in CMRL 1066 medium containing 100 U/ml penicillin, 100 μg/ml streptomycin and 10% fetal calf serum (Gibco, Gaithersburg, Md.), hereinafter referred to as culture medium. Two days after plating, when most islets were attached and began to flatten, the medium was changed to culture medium containing 5.5, 11.1 or 33.3 mM glucose. In some experiments, islets were additionally cultured with 2 ng/ml recombinant human IL-1β, 1000 U/ml recombinant human IFNγ (ReproTech EC Ltd, London, UK), 500 ng/ml IL-1β receptor antagonist (IL-1Ra) (R&D Systems Inc., Minneapolis, Minn.), 1 ng/ml membrane bound Fas-ligand (FasL) (36) (upstate biotechnology, Lake Placid, N.Y.) or with 100 μM pyrrolidinedithiocarbamate (PDTC; Sigma; 2 h per 2 d of culture).
β-cell apoptosis. The free 3-OH strand breaks resulting from DNA degradation were detected by the terminal deoxynucleotidyl transferase-mediated dUTP nick-end labeling (TUNEL) technique (38). After washing with PBS, cultured islets were fixed in 4% paraformaldehyde (30 min, room temperature) followed by permeabilisation with 0.5% triton X-100 (4 min, room temperature). The TUNEL assay was performed according to the manufacturer's instructions (In Situ Cell Death Detection Kit, AP; Boehringer Mannheim, Germany). […] The samples were immediately evaluated by fluorescence microscopy for positively stained […] nuclei.

[3] = system: human islets; assay: Insulin release and content of human islets; format: cell-based
Description: as §1
Insulin release and content. To determine acute insulin release in response to glucose stimulation, islets were washed in RPMI 1640 medium with 10% FCS and containing 3.3 mM glucose and pre-incubated for 1 h in the same medium. The medium was then discarded and replaced with fresh medium containing 3.3 mM glucose for 1 h for basal secretion, followed by an additional 1 h incubation in medium containing 16.7 mM glucose. Incubates were collected and frozen for insulin assays. […] Insulin was determined by a human insulin RIA kit (CIS bio international, Gif-Sur-Yvette, France).

[4] = system: IL-1Ra; assay: IL-1Ra release and mRNA in human blood monocytes; format: cell-based; details: leptin, 15 and 48 hours
Description: Human blood monocytes were isolated as described previously (37), cultured in RPMI 1640 (Invitrogen) containing 100 U/ml penicillin, 100 μg/ml streptomycin and 10% fetal calf serum and exposed to 10 or 500 nM leptin.
RNA extraction and RT-PCR. Islets were cultured in a suspension as described above. Total RNA was extracted using Rneasy mini kit (Qiagen, Basel, Switzerland) and RT-PCR was performed using the Superscript™ II Rnase H-Reverse transcriptase kIT and oligo (dT) (7) (Life technologies, Gaithersburg, Md., USA) according to the instructions from the manufacturers. The following primers were used: 5′[…]3′(SEQ ID. NO. 1)/5′[…]3′ (human IL-1Ra) (SEQ ID.NO. 2) and 5′[…]3′(SEQ ID. NO. 3)/5′[…]3′ (human IL-1β) (SEQ ID. NO. 4). PCR conditions were: denaturation for 30 seconds at 94° C., annealing for 30 seconds at 60° C., and elongation for 30 seconds at 72° C., followed for real time PCR by quantification for 5 seconds at 82° C.; repetition for 40 cycles. Saturation of PCR product occurred between 19 and 33 cycles. […] For quantitative analysis, we used the LightCycler quantitative PCR system (Roche) and performed quantitative PCR with a commercial kit (LightCycler-DNA Master SYBR Green I; Roche). […]
Cytokine release. Cytokine release was evaluated in the culture medium collected before the termination of each experiment using human IL-1β and IL-1Ra ELISA kits (R&D Systems Inc.).

Question: For “Interleukin 1 receptor antagonist [IL-1Ra]”, which patients with infections ([1]; human, in vivo) is on record?
Answer: Its patients with infections is 40%.

Question: And the “patients with serious infections” value ([1]; human, in vivo)?
Answer: Its value is 1.8%.

Question: And the “patients developing neutropenia (absolute neutrophil count 1×10^9/l or less)” value ([1]; placebo-controlled trials, rheumatoid arthritis)?
Answer: Its value is 0.3%.

Question: What about the “patients requiring discontinuation of treatment (injection site reactions)” value ([1]; rheumatoid arthritis patients) of the same substance?
Answer: The value was “up to 5%”.

Question: What about the “most commonly reported adverse effects” value ([1]; subcutaneous treatment, rheumatoid arthritis patients) of the same substance?
Answer: The value was “Injection site reactions”.

Question: What about the “baseline apoptosis (TUNEL-positive β-cells)” value ([2]; 5.5 mM glucose) of the same substance?
Answer: The value was “did not significantly change baseline apoptosis”.

Question: And the “glucose-induced β-cell apoptosis / DNA fragmentation (TUNEL)” value ([2]; 33.3 mM glucose, with IL-1Ra 500 ng/ml or PDTC 100 μM)?
Answer: Its value is “protected the β-cells from apoptosis”.

Question: And the “acute glucose-stimulated insulin release, co-incubation” value ([3]; 33.3 mM glucose or IL-1β for 4 days plus IL-1Ra or PDTC)?
Answer: The value was “partially restored such glucose stimulation”.

Question: And the “insulin content of islets” value ([3]; high glucose with IL-1Ra, 4 days)?
Answer: The value was “remained unaffected”.

Question: Which “IL-1Ra release and mRNA in peripheral blood monocytes” value [4] does the source give for “leptin: rh leptin (PeproTech); protein encoded by the ob gene” here?
Answer: The value was “A similar dual effect”.
